According to patent US11608374 (dated 2023):

T1: rat sclerostin (rat)
T1 chain: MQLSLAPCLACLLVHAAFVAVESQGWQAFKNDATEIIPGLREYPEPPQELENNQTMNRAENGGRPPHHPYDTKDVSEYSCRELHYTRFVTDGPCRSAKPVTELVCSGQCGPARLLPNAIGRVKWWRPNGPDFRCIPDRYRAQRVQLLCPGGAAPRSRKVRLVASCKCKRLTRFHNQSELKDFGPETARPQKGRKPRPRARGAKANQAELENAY

T2: cynomolgus sclerostin (cynomolgus monkey)
T2 chain: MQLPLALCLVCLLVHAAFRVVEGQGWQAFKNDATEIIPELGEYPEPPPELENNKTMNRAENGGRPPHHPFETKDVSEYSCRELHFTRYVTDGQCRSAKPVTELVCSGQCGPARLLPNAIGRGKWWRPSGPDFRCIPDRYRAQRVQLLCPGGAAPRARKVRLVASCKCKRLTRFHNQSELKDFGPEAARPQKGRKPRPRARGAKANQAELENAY

T3: mouse sclerostin (mouse)
T3 chain: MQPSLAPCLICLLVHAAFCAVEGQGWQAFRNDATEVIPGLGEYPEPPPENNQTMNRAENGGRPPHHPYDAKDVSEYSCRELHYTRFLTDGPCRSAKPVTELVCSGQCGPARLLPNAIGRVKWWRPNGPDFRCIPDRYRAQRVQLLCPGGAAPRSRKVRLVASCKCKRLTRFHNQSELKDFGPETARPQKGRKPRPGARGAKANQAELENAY

T4: human sclerostin (human)
T4 chain: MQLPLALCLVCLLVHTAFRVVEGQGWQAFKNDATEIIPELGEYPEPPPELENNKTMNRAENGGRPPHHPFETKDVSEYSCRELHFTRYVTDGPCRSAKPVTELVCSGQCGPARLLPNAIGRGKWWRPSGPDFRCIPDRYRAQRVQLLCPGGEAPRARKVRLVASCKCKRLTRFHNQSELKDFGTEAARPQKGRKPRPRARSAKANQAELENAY


Tests used:
rat sclerostin [1] = biological target: T1, rat sclerostin; test: SPR, pH 5.8, 37C
cynomolgus sclerostin [2] = biological target: T2, cynomolgus sclerostin; test: SPR, pH 7.4, 37C
mouse sclerostin [3] = biological target: T3, mouse sclerostin; test: SPR, pH 5.8, 37C
human sclerostin [4] = biological target: T4, human sclerostin; test: SPR, pH 7.4, 37C
rat sclerostin [5] = biological target: T1, rat sclerostin; test: SPR, pH 7.4, 37C
cynomolgus sclerostin [6] = biological target: T2, cynomolgus sclerostin; test: SPR, pH 7.4 to 5.8, 37C
mouse sclerostin [7] = biological target: T3, mouse sclerostin; test: SPR, pH 7.4, 37C
human sclerostin [8] = biological target: T4, human sclerostin; test: SPR, pH 7.4 to 5.8, 37C
rat sclerostin [9] = biological target: T1, rat sclerostin; test: SPR, pH 7.4 to 5.8, 37C

Kd (rat sclerostin [1])	Kd (cynomolgus sclerostin [2])	Kd (mouse sclerostin [3])	Kd (human sclerostin [4])	Kd (rat sclerostin [5])	koff (cynomolgus sclerostin [6])	Kd (mouse sclerostin [7])	koff (human sclerostin [8])	koff (rat sclerostin [9])	Binder
4.2 nM	0.202 nM	5.21 nM	0.213 nM	0.0252 nM	0.0156 s⁻¹	0.0632 nM	0.0131 s⁻¹	–	mabA_pH1 (antibody, V domains shown) VH: EVQLVQSGAEVKKPGASVKVSCKASGYTFTDYNMHWVRQAPGQGLEWMGEINPNSGHAGYNQKFKGRVTMTTDTSTSTAYMELRSLRSDDTAVYYCARLHYDDIYDDWYFDVWGQGTTVTVSS VL: DIQMTQSPSSLSASVGDRVTITCRASHDISNYLNWYQQKPGKAPKLLIYYTSRLLSGVPSRFSGSGSGTDFTLTISSLQPEDFATYYCQQGDTLPYTFGGGTKVEIK
–	–	1.05 nM	–	0.184 nM	–	0.287 nM	–	0.0182 s⁻¹	mabA_pH3 (antibody, V domains shown) VH: EVQLVQSGAEVKKPGASVKVSCKASGYTFTDYNMHWVRQAPGQGLEWMGEINPHSGHAGYNQKFKGRVTMTTDTSTSTAYMELRSLRSDDTAVYYCARLHYDDIHDDWYFDVWGQGTTVTVSS VL: DIQMTQSPSSLSASVGDRVTITCRASHDISNYLNWYQQKPGKAPKLLIYYTSRLLSGVPSRFSGSGSGTDFTLTISSLQPEDFATYYCQQGDTLPYTFGGGTKVEIK
4.45 nM	0.252 nM	5.43 nM	0.258 nM	0.0312 nM	0.0165 s⁻¹	0.0807 nM	0.0139 s⁻¹	–	mabA_pH2 (antibody, V domains shown) VH: EVQLVQSGAEVKKPGASVKVSCKASGYTFTDYNMHWVRQAPGQGLEWMGEINPNSGHAGYNQKFKGRVTMTTDTSTSTAYMELRSLRSDDTAVYYCARLHYDHIYDDWYFDVWGQGTTVTVSS VL: DIQMTQSPSSLSASVGDRVTITCRASHDISNYLNWYQQKPGKAPKLLIYYTSRLLSGVPSRFSGSGSGTDFTLTISSLQPEDFATYYCQQGDTLPYTFGGGTKVEIK
